Assay results published in US9012186B2, “Hemicellulose-degrading enzymes” (The Board of Trustees of the University of Illinois, priority 2009, dated 2015).
Numbering of substitutions follows the chain as printed. Names may count otherwise.

Legend:
Format in all cases: biochemical, Prevotella bryantii
[1] = substrate: O=[N+]([O-])c1ccc(O[C@@H]2O[C@H](CO)[C@@H](O)[C@H](O)[C@H]2O)cc1; experiment: Steady state kinetics of pNP substrate hydrolysis, Pb911 WT; conditions: other: Pb911 WT, pNP assay per Example 2 (sodium citrate, pH 5.5, 37° C.)
Procedure: (§1) Enzyme-catalyzed hydrolysis of para-nitrophenyl (pNP)-linked monosaccharide substrates was assayed using a thermostated Synergy II multi-mode microplate reader from BioTek Instruments Inc. (Winooski, Vt.). A library of pNP substrates were screened for activity including: pNP-α-L-arabinopyranoside, pNP-α-L-arabinofuranoside, pNP-β-D-fucopyranoside, pNP-α-L-fucopyranoside, pNP-α-D-galactopyranoside, pNP-β-D-galactopyranoside, pNP-α-D-glucopyranoside, pNP-β-D-glucopyranoside, pNP-β-D-maltopyranoside, pNP-α-D-maltopyranoside, pNP-α-D-mannopyranoside, pNP-β-D-mannopyranoside, pNP-α-L-rhamnopyranoside, pNP-β-D-xylopyranoside, pNP-β-D-cellobioside. The substrates (1 mM) in citrate buffer (100 μL; 50 mM sodium citrate, 150 mM NaCl, pH 5.5) were incubated at 37° C. in the presence or absence of Pb886 (0.2 μM) for 30 min, and the level of pNP release was determined by continuously monitoring the absorbance at 400 nm. The pathlength correction feature of the instrument was employed to convert the absorbance values recorded to correspond to a 1 cm pathlength. The extinction coefficient for pNP at pH 5.5 and a wavelength of 400 nm was measured as 0.673 mM^−1cm^−1.
(§2) FIG. 4c illustrates the kinetics of pNP substrate hydrolysis. The activity of Pb886 was verified with para-nitrophenyl derivatives of xylose and arabinose as indicated in the x-axes. These substrates are artificial substrates for the enzyme. Kinetic studies of Pb886 were performed using a thermostated Synergy II multi-mode microplate reader from BioTek Instruments Inc. (Winooski, Vt.). pNP-β-D-Xylopyranoside (0-46.25 mM) or pNP-α-L-arabinofuranoside (0-25 mM) were incubated in a citrate reaction buffer (100 μL; 50 mM sodium citrate, 150 mM NaCl, pH 5.5) at 37° C. in a 96-well flat bottom microtiter plate, and reactions were initiated by the addition of Pb886 (0.2 μM). Hydrolysis of pNP-β-D-xylopyranoside and pNP-α-L-arabinofuranoside were continuously monitored by recording the UV signal at 400 nm. Initial rate data were then plotted against the substrate concentration, and kinetic values were estimated by applying a nonlinear curve fit using GraphPad Prism v5.02 from GraphPad Software (San Diego, Calif.). The extinction coefficient for para-nitrophenol at pH 5.5 and a wavelength of 400 nm was measured as 0.673 mM^−1cm^−1.
(§3) Pb911 protein was expressed and purified according to the methods described in Example 1. […] The activity of Pb911 on pNP substrates was measured according to the methods described in Example 2.

[2] = substrate: O=[N+]([O-])c1ccc(O[C@@H]2OC[C@@H](O)[C@H](O)[C@H]2O)cc1; experiment: as above; conditions: other: Pb911 WT, pNP assay per Example 2 (sodium citrate, pH 5.5, 37° C.)
Procedure: as §1, §2, §3

[3] = substrate: O=[N+]([O-])c1ccc(O[C@@H]2O[C@H](CO)[C@@H](O)[C@H](O)[C@H]2O)cc1; experiment: Steady state kinetics of pNP substrate hydrolysis, Pb911 E115D; conditions: other: Pb911 E115D, pNP assay per Example 2 (sodium citrate, pH 5.5, 37° C.)
Procedure: as §1, §2, §3

[4] = substrate: O=[N+]([O-])c1ccc(O[C@@H]2OC[C@@H](O)[C@H](O)[C@H]2O)cc1; experiment: as above; conditions: other: Pb911 E115D, pNP assay per Example 2 (sodium citrate, pH 5.5, 37° C.)
Procedure: as §1, §2, §3

[5] = substrate: O=[N+]([O-])c1ccc(O[C@@H]2O[C@H](CO)[C@@H](O)[C@H](O)[C@H]2O)cc1; experiment: Steady state kinetics of pNP substrate hydrolysis, Pb911 E115A; conditions: other: Pb911 E115A, pNP assay per Example 2 (sodium citrate, pH 5.5, 37° C.)
Procedure: as §1, §2, §3

[6] = substrate: O=[N+]([O-])c1ccc(O[C@@H]2OC[C@@H](O)[C@H](O)[C@H]2O)cc1; experiment: as above; conditions: other: Pb911 E115A, pNP assay per Example 2 (sodium citrate, pH 5.5, 37° C.)
Procedure: as §1, §2, §3

B1: Prevotella bryantii β-xylosidase/β-glucosidase Pb911 (alternatively named Pb2369), wild type, SEQ ID NO: 6 (Segatella baroniae B14) (protein)
chain: QTILINQQVDALYDRMSQEERINQLRSGYMDDLFDEQGNLDTVKCKELIPFGIGHFSQYASQKPLDANILRDRVAAVQDWLIHHTPNGIPALFHEEVLSGVNTKDATIYPQQIGQACSFNPELAERKTLQTGIDMRKMGGVLSLSPMVDVCRNPSFNRLEESYGEDGYLSAVMGTAFVKGLQQGDLTKGVGACSKHYLGYGGGGDAKEKEMMEEILLPHETMIRLAGSKALMPGYHAVHGTNCVANHEILTDILRGYLGFDGMVVSDYTAIDQIPGLDTPLQKATAAINAGNDVDFPHGANYKFLQEGLDKGMVKSEAFERAVKDVLRHKYRQGLFDKNAYLYSKDPIQLDSKEERQTAYDIATQSVVLLENKGILPLRGKQNIFVTGPNANTMWAMCGDYSFPAMTYFWKKVTEDLDHPHIVKLLEGMKDRKPAGINISYSRGCDWTDTIETKYAVSGDERAWEYEVLHRKVDSGEKADETEALAMAKEADVIIAAVGENVMLCGENRDRQGLCLPGHQEQYVERLLATGKPVVLVVFGGRAQVISNIANRCAAVIQAWYPGEEGGHAVADILYGNVSPSAKLSVSYPNVELNEPICYNYSAKQDSRVAWPFGYGLSYTTFDYSNLEVPTEVKTSDESLHIAFEVANTGKMDADEIAQVYLSPTQENQNIRPIQLQGFARISLKAGERKKVKVKLYTEQFGYYSNNGKRQWNIAPGTFTVKIGASSQDIKLQKNITVKGDIVVKPLRDFYFSEVIK
B1 gave a Km [1] of 22 ± 1 mM, a kcat [1] of 19 ± 0.6 s⁻¹ and a kcat/Km [1] of 0.86 ± 0.05 s⁻¹ mM⁻¹. It also gave a Km [2] of 8.4 ± 1 mM, a kcat [2] of 250 ± 10 s⁻¹ and a kcat/Km [2] of 30 ± 4 s⁻¹ mM⁻¹.

B2: Prevotella bryantii β-xylosidase/β-glucosidase Pb911 (alternatively named Pb2369, wild type SEQ ID NO: 6) variant E115D (Segatella baroniae B14; E115D) (protein)
chain: B1 chain with E96D
In the case of B2, the Km [3] is reported as 17 ± 1 mM, the kcat [3] is reported as 16 ± 0.4 s⁻¹ and the kcat/Km [3] is reported as 0.94 ± 0.06 s⁻¹ mM⁻¹. For the same protein, the Km [4] was 39 ± 4 mM, the kcat [4] was 87 ± 5 s⁻¹ and the kcat/Km [4] was 2.2 ± 0.2 s⁻¹ mM⁻¹.

B3: Prevotella bryantii β-xylosidase/β-glucosidase Pb911 (alternatively named Pb2369, wild type SEQ ID NO: 6) variant E115A (Segatella baroniae B14; E115A) (protein)
chain: B1 chain with E96A
B3 was tested, and the Km [5] was 39 ± 4 mM, the kcat [5] was 0.087 ± 0.005 s⁻¹ and the kcat/Km [5] was 0.0022 ± 0.0003 s⁻¹ mM⁻¹. The Km [6] was 28 ± 3 mM, the kcat [6] was 0.35 ± 0.02 s⁻¹ and the kcat/Km [6] was 0.013 ± 0.002 s⁻¹ mM⁻¹.
